From the supplement of paper PMC10567573 come the findings set out here.

B1: YPEL3 (parent)
chain: SKPKTFQAYLDDCHRRYSCAHCRA
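Also: lentivirally expressed fusions sorted by FACS into six bins by GFP to DsRed ratio, PSI derived from sequencing read proportions per bin multiplied by bin number.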

Variants of B1 are the subject of the series. Kind of series: protein stability index of a GFP-peptide fusion (GPS, HEK-293T) (PSI 1-6); higher = more stable. Conditions: c terminus: a fixed tail appended.
SKPKTFQDYLDDCHRRYSCAHCRA [A8D]: the protein stability index amounted to 1.54.
Regarding SKPKTFQHYLDDCHRRYSCAHCRA [A8H], the protein stability index worked out at 2.51.
In the case of SKPKTFQWYLDDCHRRYSCAHCRA [A8W] it was 2.09.
For the variant SKPKTFQNYLDDCHRRYSCAHCRA [A8N], the protein stability index was 2.49.
Consider SKPKTFQYYLDDCHRRYSCAHCRA [A8Y], for which the protein stability index worked out at 2.02.
Regarding SKPKTFQKYLDDCHRRYSCAHCRA [A8K], the protein stability index amounted to 2.31.
In the case of SKPKTFQLYLDDCHRRYSCAHCRA [A8L] it was 2.4.
In the case of SKPKTFQEYLDDCHRRYSCAHCRA [A8E] it was 1.92; in that of SKPKTFQSYLDDCHRRYSCAHCRA [A8S], 1.82.
As for SKPKTFQIYLDDCHRRYSCAHCRA [A8I], the protein stability index is 1.81.
Regarding SKPKTFQVYLDDCHRRYSCAHCRA [A8V], the protein stability index came to 2.23.
In the case of SKPKTFQFYLDDCHRRYSCAHCRA [A8F] it was 1.78; in that of SKPKTFQGYLDDCHRRYSCAHCRA [A8G], 1.91; in that of SKPKTFQPYLDDCHRRYSCAHCRA [A8P], 2.62.
Under SKPKTFQCYLDDCHRRYSCAHCRA [A8C] stands 2.32; under SKPKTFQMYLDDCHRRYSCAHCRA [A8M], 1.66; under SKPKTFQQYLDDCHRRYSCAHCRA [A8Q], 2.5.
Under SKPKTFQRYLDDCHRRYSCAHCRA [A8R] stands 1.88; under SKPKTFQTYLDDCHRRYSCAHCRA [A8T], 2.1.
As to SKPKTFEAYLDDCHRRYSCAHCRA [Q7E], the protein stability index was found to be 2.16.
In the case of SKPKTFAAYLDDCHRRYSCAHCRA [Q7A], the protein stability index turned out to be 2.39.
SKPKTFMAYLDDCHRRYSCAHCRA [Q7M]: the protein stability index was 1.8.
As to SKPKTFWAYLDDCHRRYSCAHCRA [Q7W], the protein stability index was found to be 1.73.
Consider SKPKTFGAYLDDCHRRYSCAHCRA [Q7G], for which the protein stability index turned out to be 2.22.
With SKPKTFNAYLDDCHRRYSCAHCRA [Q7N], the protein stability index came out at 2.04.
As for SKPKTFIAYLDDCHRRYSCAHCRA [Q7I], the protein stability index worked out at 1.4.
Take SKPKTFRAYLDDCHRRYSCAHCRA [Q7R]: the protein stability index came to 2.02.
Regarding SKPKTFSAYLDDCHRRYSCAHCRA [Q7S], the protein stability index worked out at 1.89.
In the case of SKPKTFDAYLDDCHRRYSCAHCRA [Q7D] it was 2.68; in that of SKPKTFCAYLDDCHRRYSCAHCRA [Q7C], 1.96.
With SKPKTFTAYLDDCHRRYSCAHCRA [Q7T], the protein stability index was found to be 1.93.
On to SKPKTFFAYLDDCHRRYSCAHCRA [Q7F], for which the protein stability index was 3.06.
In the case of SKPKTFPAYLDDCHRRYSCAHCRA [Q7P] it was 2.8; in that of SKPKTFVAYLDDCHRRYSCAHCRA [Q7V], 2.18; in that of SKPKTFHAYLDDCHRRYSCAHCRA [Q7H], 2.2.
On to SKPKTFKAYLDDCHRRYSCAHCRA [Q7K], for which the protein stability index is 2.65.
SKPKTFLAYLDDCHRRYSCAHCRA [Q7L]: the protein stability index is 1.76.
With SKPKTFYAYLDDCHRRYSCAHCRA [Q7Y], the protein stability index is 1.85.
As to SKPKTFQAYLDDCFRRYSCAHCRA [H14F], the protein stability index came out at 1.07.
Under SKPKTFQAYLDDCDRRYSCAHCRA [H14D] stands 1.67; under SKPKTFQAYLDDCLRRYSCAHCRA [H14L], 1.82; under SKPKTFQAYLDDCMRRYSCAHCRA [H14M], 2.34.
Consider SKPKTFQAYLDDCIRRYSCAHCRA [H14I], for which the protein stability index was determined as 2.05.
With SKPKTFQAYLDDCYRRYSCAHCRA [H14Y], the protein stability index was found to be 1.56.
SKPKTFQAYLDDCCRRYSCAHCRA [H14C]: the protein stability index worked out at 2.28.
Turning to SKPKTFQAYLDDCERRYSCAHCRA [H14E], the protein stability index was 1.56.
Take SKPKTFQAYLDDCSRRYSCAHCRA [H14S]: the protein stability index came out at 2.06.
In the case of SKPKTFQAYLDDCQRRYSCAHCRA [H14Q], the protein stability index is 2.23.
In the case of SKPKTFQAYLDDCRRRYSCAHCRA [H14R] it was 1.73.
For the variant SKPKTFQAYLDDCVRRYSCAHCRA [H14V], the protein stability index is 2.15.
Consider SKPKTFQAYLDDCWRRYSCAHCRA [H14W], for which the protein stability index is 3.12.
In the case of SKPKTFQAYLDDCTRRYSCAHCRA [H14T] it was 1.8; in that of SKPKTFQAYLDDCARRYSCAHCRA [H14A], 2.03; in that of SKPKTFQAYLDDCNRRYSCAHCRA [H14N], 2.19.
Take SKPKTFQAYLDDCGRRYSCAHCRA [H14G]: the protein stability index worked out at 3.08.
Regarding SKPKTFQAYLDDCKRRYSCAHCRA [H14K], the protein stability index stood at 2.78.
For SKPKTFQAYLDDCPRRYSCAHCRA [H14P], the protein stability index worked out at 2.05.
Under SKPKTFQAYLIDCHRRYSCAHCRA [D11I] stands 2.92; under SKPKTFQAYLEDCHRRYSCAHCRA [D11E], 2.59.
For the variant SKPKTFQAYLMDCHRRYSCAHCRA [D11M], the protein stability index turned out to be 2.47.
For SKPKTFQAYLCDCHRRYSCAHCRA [D11C], the protein stability index turned out to be 3.36.
As for SKPKTFQAYLADCHRRYSCAHCRA [D11A], the protein stability index was determined as 1.89.
On to SKPKTFQAYLKDCHRRYSCAHCRA [D11K], for which the protein stability index amounted to 2.83.
As to SKPKTFQAYLTDCHRRYSCAHCRA [D11T], the protein stability index is 2.14.
Consider SKPKTFQAYLNDCHRRYSCAHCRA [D11N], for which the protein stability index came out at 2.6.
On to SKPKTFQAYLVDCHRRYSCAHCRA [D11V], for which the protein stability index was 1.75.
Consider SKPKTFQAYLHDCHRRYSCAHCRA [D11H], for which the protein stability index is 2.37.
In the case of SKPKTFQAYLQDCHRRYSCAHCRA [D11Q] it was 2.21; in that of SKPKTFQAYLRDCHRRYSCAHCRA [D11R], 1.9.
Regarding SKPKTFQAYLSDCHRRYSCAHCRA [D11S], the protein stability index amounted to 1.9.
In the case of SKPKTFQAYLFDCHRRYSCAHCRA [D11F], the protein stability index was 3.03.
In the case of SKPKTFQAYLGDCHRRYSCAHCRA [D11G], the protein stability index amounted to 1.97.
In the case of SKPKTFQAYLYDCHRRYSCAHCRA [D11Y] it was 1.72; in that of SKPKTFQAYLWDCHRRYSCAHCRA [D11W], 1.5.
Regarding SKPKTFQAYLPDCHRRYSCAHCRA [D11P], the protein stability index was 2.54.
As for SKPKTFQAYLLDCHRRYSCAHCRA [D11L], the protein stability index was determined as 2.11.
SKPKSFQAYLDDCHRRYSCAHCRA [T5S]: the protein stability index is 1.77.
In the case of SKPKMFQAYLDDCHRRYSCAHCRA [T5M] it was 2.56.
On to SKPKYFQAYLDDCHRRYSCAHCRA [T5Y], for which the protein stability index worked out at 1.97.
On to SKPKQFQAYLDDCHRRYSCAHCRA [T5Q], for which the protein stability index worked out at 2.55.
With SKPKNFQAYLDDCHRRYSCAHCRA [T5N], the protein stability index was found to be 2.53.
In the case of SKPKWFQAYLDDCHRRYSCAHCRA [T5W] it was 1.99; in that of SKPKRFQAYLDDCHRRYSCAHCRA [T5R], 2.85.
Turning to SKPKPFQAYLDDCHRRYSCAHCRA [T5P], the protein stability index was 2.43.
Consider SKPKVFQAYLDDCHRRYSCAHCRA [T5V], for which the protein stability index stood at 2.05.
On to SKPKTWQAYLDDCHRRYSCAHCRA [F6W], for which the protein stability index was 2.44.
For SKPKTSQAYLDDCHRRYSCAHCRA [F6S], the protein stability index stood at 3.3.
Consider SKPKTKQAYLDDCHRRYSCAHCRA [F6K], for which the protein stability index turned out to be 3.23.
In the case of SKPKTYQAYLDDCHRRYSCAHCRA [F6Y], the protein stability index came to 2.2.
Consider SKPKTEQAYLDDCHRRYSCAHCRA [F6E], for which the protein stability index turned out to be 3.4.
In the case of SKPKTLQAYLDDCHRRYSCAHCRA [F6L] it was 2.27; in that of SKPKTAQAYLDDCHRRYSCAHCRA [F6A], 2.95; in that of SKPKTCQAYLDDCHRRYSCAHCRA [F6C], 2.84.
With SKPKTNQAYLDDCHRRYSCAHCRA [F6N], the protein stability index amounted to 3.15.
